This note sets out measurements from the supplement of paper PMC10201428.

Sequences and labels used below:
B1: library; a variant is named by its letters at N, in order (parent)
chain: ACATTTGTTGATACAACCATAAAATGATAATTACACCCATAAATTGATAATTATCACACCCANNNNNNNNNNNNNNCTCTGATCATAGTCAGACCAACATTGCTACGACCCGTATTCGCACCGACAC

The variants in series [1] derive from B1. Briefly: relative integration efficiency (T-RL orientation) vs wild-type transposon end (log2 (normalized fold change)); transposon end mutated: right end (5 bp flank + 75 bp right end); higher = more efficient transposition. The settings on record: with VchCAST RNA-guided transposition machinery (E. coli BL21(DE3) host, lacZ target). The method, then:
(§1)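 Pooled, barcoded VchCAST (Tn6677) mini-transposon donor libraries; each variable transposon-end sequence sits in a fixed pDonor mini-transposon context (10-bp barcode and cargo not included). Left- or right-end libraries were co-transformed with pEffector (TniQ-Cascade, TnsABC, lacZ crRNA, T7, 0.1 mM IPTG) into E. coli BL21(DE3) and grown 18 h at 37 C. T-LR and T-RL junction amplicons were sequenced; output/input barcode fold change was normalised to the mean of four wild-type barcodes and log2-transformed. Two biological replicates; zero-count/undetected variants carry floor values (-10 / -15), censored here. Barcode uncoupling by PCR recombination adds noise.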

Variants of B1 are the subject of series [2]. Briefly: relative integration efficiency (T-LR orientation) vs wild-type transposon end (log2 (normalized fold change)); transposon end mutated: right end (5 bp flank + 75 bp right end); higher = more efficient transposition. The settings on record: with VchCAST RNA-guided transposition machinery (E. coli BL21(DE3) host, lacZ target). As to the method: as §1

± gives the standard deviation of the averaged measurements.

On to ATTTAACTATAACG A16C, for which the “relative integration efficiency (log2)” value in series [1] is -1.24 ± 0.14; in series [2], 2 ± 0.11.

For ATTTAACTATAACG A16G, the “relative integration efficiency (log2)” value is -1.04 ± 0.027 in series [1] and 2.09 ± 0.17 in series [2].

ATTTAACTATAACG A16T: the figures for the “relative integration efficiency (log2)” value in series [1] and in series [2] were -0.779 ± 0.2 and 2.59 ± 0.066, respectively.

For ATTTAACTATAACG, the “relative integration efficiency (log2)” value in series [1] is -0.618 ± 0.17; in series [2] it was 2.52 ± 0.22.

For the variant TAAATTGATATTGC T12A, the “relative integration efficiency (log2)” value in series [1] is -0.107 ± 0.031; in series [2], -0.916 ± 0.17.

For the variant TAAATTGATATTGC T12G, the “relative integration efficiency (log2)” value was -0.147 ± 0.043 in series [1] and -1.06 ± 0.57 in series [2].

TAAATTGATATTGC T12C: the “relative integration efficiency (log2)” value is -0.235 ± 0.019 in series [1] and -0.906 ± 0.64 in series [2].

Consider TAATTTGATATTGC, for which the “relative integration efficiency (log2)” value in series [1] was found to be 0.169 ± 0.039; in series [2] it was 0.241 ± 0.14.

Turning to TTAATTGATATTGC, the “relative integration efficiency (log2)” value in series [1] was -0.072 ± 0.011; in series [2], 0.636 ± 0.14.

Turning to ATTTAACTATAACG A21T, the “relative integration efficiency (log2)” value is -0.978 ± 0.093 in series [1] and 2 ± 0.062 in series [2].

With ATTTAACTATAACG A21C, the entries for the “relative integration efficiency (log2)” value in series [1] and in series [2] were -1.05 ± 0.21 and 1.892 ± 0.013, respectively.

Regarding TAAATTGATATTGC T31A, the “relative integration efficiency (log2)” value in series [1] was -0.436 ± 0.1; in series [2], 0.0674 ± 0.1.

As for TAAATTGATATTGC T31C, the “relative integration efficiency (log2)” value in series [1] is -0.0667 ± 0.0077; in series [2], 0.344 ± 0.35.

Consider TAAATTGATATTGC T31G, for which the “relative integration efficiency (log2)” value is -0.564 ± 0.13 in series [1] and 0.2 ± 0.23 in series [2].

Take TAAATTGATATTGC A50T: the “relative integration efficiency (log2)” value in series [1] is -0.455 ± 0.22; in series [2] it was -0.0702 ± 0.025.

Take TAAATTGATATTGC A50G: the “relative integration efficiency (log2)” value in series [1] was -0.0471 ± 0.15; in series [2] it was 0.0313 ± 0.15.

As to TAAATTGATATTGC A50C, the “relative integration efficiency (log2)” value in series [1] was -0.321 ± 0.012; in series [2] it was -0.213 ± 0.17.

On to GCCCTTGATATTGC, for which the “relative integration efficiency (log2)” value in series [1] is -0.468 ± 0.1; in series [2], 2.5 ± 0.11.

Consider TAAATTGATATTGC A41G, for which the “relative integration efficiency (log2)” value was -0.104 ± 0.45 in series [1] and -0.399 ± 1.1 in series [2].

Regarding TAAATTGATATTGC A41C, the “relative integration efficiency (log2)” value is -0.815 ± 0.047 in series [1] and -0.78 ± 0.23 in series [2].

For the variant TAAATTGATATTGC A41T, the “relative integration efficiency (log2)” value in series [1] is -0.0667 ± 0.018; in series [2], -0.148 ± 0.022.

In the case of TAAATTTCTATTGC, the “relative integration efficiency (log2)” value is -0.55 ± 0.13 in series [1] and 2.4 ± 0.28 in series [2].

Turning to TACCGGGATATTGC, the “relative integration efficiency (log2)” value is -0.561 ± 0.028 in series [1] and 2.282 ± 0.0082 in series [2].

As for TAAATTGATATTGC C59G, the “relative integration efficiency (log2)” value in series [1] was -0.141 ± 0.043; in series [2], 0.747 ± 0.024.

TAAATTGATATTGC C59T: the figures for the “relative integration efficiency (log2)” value in series [1] and in series [2] were -0.0651 ± 0.0017 and 0.538 ± 0.076, respectively.

For the variant TAAATTGATATTGC C59A, the “relative integration efficiency (log2)” value in series [1] is 0.048 ± 0.078; in series [2], -0.0286 ± 0.31.

Turning to TAAATTGATATTGC T20C, the “relative integration efficiency (log2)” value in series [1] is -0.448 ± 0.19; in series [2], -0.577 ± 0.33.

For the variant TAAATTGATATTGC T20G, the figures for the “relative integration efficiency (log2)” value in series [1] and in series [2] were -1.34 ± 0.03 and -1.12 ± 0.28, respectively.

As to TAAATTGATATTGC T20A, the “relative integration efficiency (log2)” value in series [1] was -0.299 ± 0.1; in series [2], -0.359 ± 0.083.

As for TAAATTGATATTGC T5C, the “relative integration efficiency (log2)” value in series [1] was -0.234 ± 0.068; in series [2], -0.488 ± 0.12.

For TAAATTGATATTGC T5A, the “relative integration efficiency (log2)” value in series [1] came to 0.0941 ± 0.11; in series [2], 0.163 ± 0.31.

Take TAAATTGATATTGC T5G: the “relative integration efficiency (log2)” value was -0.23 ± 0.018 in series [1] and -0.319 ± 0.36 in series [2].

Consider TAAATTGATATTGC C77T, for which the figures for the “relative integration efficiency (log2)” value in series [1] and in series [2] were -0.00923 ± 0.0046 and -0.351 ± 0.044, respectively.

Turning to TAAATTGATATTGC C77G, the “relative integration efficiency (log2)” value in series [1] is 0.0121 ± 0.017; in series [2], -0.217 ± 0.018.

In the case of TAAATTGATATTGC C77A, the “relative integration efficiency (log2)” value in series [1] is -0.111 ± 0.093; in series [2] it was -0.0608 ± 0.27.

TAAATTTATATTGC: the “relative integration efficiency (log2)” value in series [1] is -0.361 ± 0.18; in series [2], 1.7 ± 0.14.

As to TAAATTGATATTGC G7A, the “relative integration efficiency (log2)” value in series [1] is -0.0765 ± 0.034; in series [2] it was -0.974 ± 0.015.

TAAATTGATATTGC G7C: the “relative integration efficiency (log2)” value is -0.529 ± 0.13 in series [1] and -1.41 ± 0.63 in series [2].

As to TAAATTGATATTGC G7T, the “relative integration efficiency (log2)” value was -2.2 ± 0.4 in series [1] and -3.44 ± 0.49 in series [2].

In the case of TAACTTGATATTGC, the entries for the “relative integration efficiency (log2)” value in series [1] and in series [2] were 0.11 ± 0.027 and 0.325 ± 0.16, respectively.

As to TAAATTGATATTGC T48G, the “relative integration efficiency (log2)” value in series [1] is -0.12 ± 0.078; in series [2] it was -0.379 ± 0.13.

For the variant TAAATTGATATTGC T48C, the “relative integration efficiency (log2)” value was -0.4021 ± 0.003 in series [1] and -0.401 ± 0.25 in series [2].

For the variant TAAATTGATATTGC T48A, the results for the “relative integration efficiency (log2)” value in series [1] and in series [2] were 0.196 ± 0.2 and 0.629 ± 0.21, respectively.

Turning to TAAATTGATATTGC C18T, the “relative integration efficiency (log2)” value in series [1] was 0.131 ± 0.1; in series [2] it was -0.605 ± 0.2.

On to TAAATTGATATTGC C18G, for which the “relative integration efficiency (log2)” value in series [1] is -0.199 ± 0.036; in series [2], -0.152 ± 0.14.

In the case of TAAATTGATATTGC C18A, the figures for the “relative integration efficiency (log2)” value in series [1] and in series [2] were -0.147 ± 0.1 and -0.272 ± 0.024, respectively.

On to TAAATTGATATTGC A53T, for which the “relative integration efficiency (log2)” value is -0.33 ± 0.038 in series [1] and -0.318 ± 0.48 in series [2].

Take TAAATTGATATTGC A53C: the “relative integration efficiency (log2)” value is -0.408 ± 0.19 in series [1] and 0.07 ± 0.052 in series [2].

TAAATTGATATTGC A53G: the “relative integration efficiency (log2)” value in series [1] was -0.385 ± 0.25; in series [2], -0.269 ± 0.048.

Consider TAAATTGATCGTGC, for which the “relative integration efficiency (log2)” value is -0.217 ± 0.047 in series [1] and 0.973 ± 0.038 in series [2].

On to TAAATTGATATTGC C38A, for which the “relative integration efficiency (log2)” value in series [1] is -0.117 ± 0.04; in series [2] it was -0.451 ± 0.24.

For the variant TAAATTGATATTGC C38G, the “relative integration efficiency (log2)” value was 0.03 ± 0.16 in series [1] and -0.489 ± 0.06 in series [2].

Turning to TAAATTGATATTGC C38T, the figures for the “relative integration efficiency (log2)” value in series [1] and in series [2] were 0.335 ± 0.044 and -0.111 ± 0.49, respectively.

Take TAAATTGATATTGC T28A: the “relative integration efficiency (log2)” value in series [1] was -0.215 ± 0.21; in series [2], 0.152 ± 0.12.

In the case of TAAATTGATATTGC T28C, the “relative integration efficiency (log2)” value in series [1] is -0.278 ± 0.096; in series [2], -0.203 ± 0.2.

For the variant TAAATTGATATTGC T28G, the “relative integration efficiency (log2)” value is -0.476 ± 0.036 in series [1] and 0.189 ± 0.11 in series [2].

As for TAAATTGATATTGC A62G, the “relative integration efficiency (log2)” value in series [1] is -0.0391 ± 0.14; in series [2], 0.97 ± 0.12.

For TAAATTGATATTGC A62T, the entries for the “relative integration efficiency (log2)” value in series [1] and in series [2] were -0.435 ± 0.12 and 1.36 ± 0.086, respectively.
